Columns and labels:
rSAS1R = target: T1, rSAS1R (Mus musculus, UniProt Q6HA09); test: Far-Western analysis between SAS1R and SLLP1; type: binding
T1 construct: The mature rSAS1R (414 residues); 20 vector-encoded residues including His6 (pET-28b) (N); made in house; host or cells: E. coli BL21DE3
T1 sequence (Q6HA09 22-435): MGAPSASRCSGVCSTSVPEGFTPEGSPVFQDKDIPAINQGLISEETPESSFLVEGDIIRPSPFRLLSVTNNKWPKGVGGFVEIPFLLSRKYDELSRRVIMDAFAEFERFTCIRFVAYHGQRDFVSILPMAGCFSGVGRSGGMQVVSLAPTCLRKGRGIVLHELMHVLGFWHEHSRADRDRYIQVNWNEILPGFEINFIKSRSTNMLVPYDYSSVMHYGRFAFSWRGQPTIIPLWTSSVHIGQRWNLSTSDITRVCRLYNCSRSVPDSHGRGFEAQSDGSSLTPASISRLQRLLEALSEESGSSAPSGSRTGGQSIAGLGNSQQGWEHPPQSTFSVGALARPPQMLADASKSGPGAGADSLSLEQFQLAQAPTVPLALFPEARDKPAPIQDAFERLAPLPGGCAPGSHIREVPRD
T1 sequence (Q9D9X8 94-221 partner limits assumed): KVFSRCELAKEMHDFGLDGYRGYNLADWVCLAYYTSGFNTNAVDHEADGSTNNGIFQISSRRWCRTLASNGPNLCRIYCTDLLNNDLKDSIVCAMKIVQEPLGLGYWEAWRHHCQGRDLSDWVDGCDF
Method: Purified rSAS1R on nitrocellulose membrane was overlaid or not with soluble rSLLP1, washed and probed with anti-SLLP1 antibody.
Purified recombinant SAS1R was resolved by SDS-PAGE and transferred to nitrocellulose membranes. The membrane was probed with c-terminal anti-his monoclonal antibody and developed with TMB. Duplicate SAS1R blotted strips were overlaid with mouse rSLLP1 or not (with 5 μg/ml in blocking buffer i.e., 5% milk in PBS with 0.05% Tween 20 [PBST]) for 90 min at room temperature. Before protein overlay, the strips were incubated with blocking buffer for 1 h. Following overlay, the strips were incubated with either anti-SLLP1 (ADD2) monoclonal antibody for 1 h in blocking buffer. After washing in PBST (×4), the strips were probed with goat anti-mouse HRP secondary antibody in blocking buffer for 1 h, washed in PBST (×4) followed by PBS (×1), and developed with TMB.
To that end, 7.0 μg of recombinant ZEP was loaded onto a 12% SDS gel, subjected to PAGE, and transferred to a nitrocellulose membrane. The membrane was overlaid (OL) with recombinant SLLP1 (2.0 μg/ml) and probed with anti-SLLP1 monoclonal antibody and secondary antibody.

zona-free mouse eggs [1] = test: In vitro fertilization with zona-free eggs (sperm-oolemma binding and fusion); type: cell-based
Method: For the sperm-oolemma binding assay, two cauda epididymides were placed in 900 μl drops of fertilization medium under paraffin oil for the dense mass of spermatozoa to flow freely for ˜15 min and then diluted at 1×10^6/ml for 3 h of capacitation. Cumulus oocyte complexes were placed in 200 μl drops of TYH medium under paraffin oil. Cumulus cells were removed by treating the oocytes for 3 min with 1 mg/ml hyaluronidase in TYH medium and then washed 8 times in 50 μl drops. Zona pellucidae were loosened by treating the oocytes with 10 μg/ml chymotrypsin in TYH media for 1 min and loosened zonae were removed by mechanical agitation using a pulled Pasteur pipette. The oocytes were then washed 10 times and allowed to recover from chymotrypsin treatment by incubating in TYH media for 3 h, following which, they were stained with 10 μg/ml Hoechst dye for 10 min, and then gently washed. […]
To compare the effects of recmSLLP1 with human and chicken c lysozymes, spermatozoa were first incubated under standard capacitating conditions. Oocytes were pre-incubated for 45 min before insemination with recmSLLP1 (0.1 to 200 μg/ml) or with hSLLP1 (25 μg/ml) or with chicken or human lysozyme (50 μg/ml, 100 μg/ml). Untreated capacitated sperm were then added to the incubation drops containing the treated eggs with a final sperm concentration of 2.5×10^4/ml. Thus, in all the experiments performed the sera, the recombinant protein, or the lysozyme was present in the incubation droplet during gamete interaction. After 30 min of gamete co-incubation, oocytes were gently washed 5 times in TYH medium and placed between a microscope slide and an elevated coverslip and visualized at 160×. Binding to the oocyte was scored by counting the number of bound spermatozoa per oocyte using phase contrast. Fusion with the egg was scored by counting the number of decondensed sperm heads within each oocyte using fluorescence microscopy.

zona-free mouse eggs [2] = test: as above; type: cell-based; remark: listed apart in the source
recombinant MET = target: T2, recombinant MET (Mus musculus, UniProt Q9CWU5); test: Far-Western analysis of MET and SLLP1; type: binding; details: 7 μg recombinant MET, recombinant SLLP1 overlay 2 μg/ml
T2 construct: A complete cDNA encoding 440 amino acids was amplified from cDNA library (Ambion) of mouse ovary and cloned in pET expression vector; His-tag (pET fusion); made in house; host or cells: E. coli BL21
T2 sequence (Q9CWU5 1-440): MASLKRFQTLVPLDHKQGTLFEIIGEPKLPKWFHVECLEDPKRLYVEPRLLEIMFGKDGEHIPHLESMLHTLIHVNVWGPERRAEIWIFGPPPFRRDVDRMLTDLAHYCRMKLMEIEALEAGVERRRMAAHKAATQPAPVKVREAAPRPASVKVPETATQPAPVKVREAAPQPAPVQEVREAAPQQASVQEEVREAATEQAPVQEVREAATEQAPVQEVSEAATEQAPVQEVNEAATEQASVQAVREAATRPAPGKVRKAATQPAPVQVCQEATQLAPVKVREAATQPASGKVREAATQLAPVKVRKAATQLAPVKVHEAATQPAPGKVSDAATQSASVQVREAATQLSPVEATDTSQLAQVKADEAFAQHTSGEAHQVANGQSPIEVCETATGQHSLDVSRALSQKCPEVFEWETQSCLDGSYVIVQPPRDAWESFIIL
T2 sequence (Q9D9X8 94-221 partner limits assumed): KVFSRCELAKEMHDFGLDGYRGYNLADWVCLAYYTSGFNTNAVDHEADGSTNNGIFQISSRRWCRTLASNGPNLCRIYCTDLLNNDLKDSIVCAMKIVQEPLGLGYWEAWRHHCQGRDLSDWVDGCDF
Method: To that end, 7 μg of recombinant MET was loaded on 12% SDS-PAGE and transferred to nitrocellulose. The membrane was overlaid (OL) with recombinant SLLP1 (2 μg/ml) and probed with anti-SLLP1 monoclonal antibody and secondary antibody.

[3] = rSLLP1 overlay 5 μg/ml, anti-SLLP1 monoclonal antibody
[4] = recmSLLP1 200 μg/ml (12.5 μM), oocytes pre-incubated
[5] = relative to the controls, including recombinant egg protein ePAD

B1: recmSLLP1: mature mouse SLLP1, residues 94 to 221, six-histidine C terminal tag, expressed in E. coli, about 15 kDa (protein)
chain: KVFSRCELAKEMHDFGLDGYRGYNLADWVCLAYYTSGFNTNAVDHEADGSTNNGIFQISSRRWCRTLASNGPNLCRIYCTDLLNNDLKDSIVCAMKIVQEPLGLGYWEAWRHHCQGRDLSDWVDGCDF
modifications: left off: small tags and cut ends
binding to recombinant ZEP bands (rSAS1R; 7.0 μg recombinant ZEP, recombinant SLLP1 overlay 2.0 μg/ml): signal was observed with the upper band of ZEP, but not with the lower band | interaction with C-terminal SAS1R fragment (~25 kD) (rSAS1R; [3]): very weakly | interaction with full length SAS1R doublet (~51, ~50 kD) (rSAS1R; [3]): interacted strongly | sperm-egg binding and fusion (zona-free mouse eggs [1]; 50 μg of mouse SLLP1): maximally inhibited | inhibition of binding (zona-free mouse eggs [1]; [4]): 100% | inhibition of fusion (zona-free mouse eggs [1]; [4]): 100% | lowest concentration with significant effect on spermatozoa bound to or fused to the egg (zona-free mouse eggs [1]; recmSLLP1 0.1-200 μg/ml): 0.1 µg/mL | sperm-egg binding, number of sperm bound/egg (zona-free mouse eggs [1]; [5]): essentially completely inhibit | sperm-egg fusion (zona-free mouse eggs [1]; [5]): essentially completely inhibit | percentages of motile spermatozoa compared to the control (zona-free mouse eggs [2]): no difference | binding to purified MET (recombinant MET): strong signal

From US9803012B2, “Compositions and methods for regulating SAS1R” (UNIVERSITY OF VIRGINIA PATENT FOUNDATION, priority 2005, dated 2017)
